Test results taken from PMC7265355 (2020).

Columns and labels:
[1] = biological target: T1, ACE2-Ig (extracellular domain of human ACE2 linked to the Fc domain of human IgG1) (human, UniProt Q9BYF1 18-740); test: SPR
[2] = biological target: T1, ACE2-Ig (extracellular domain of human …); test: SPR; remark: listed apart in the source

T1 sequence (Q9BYF1 18-740): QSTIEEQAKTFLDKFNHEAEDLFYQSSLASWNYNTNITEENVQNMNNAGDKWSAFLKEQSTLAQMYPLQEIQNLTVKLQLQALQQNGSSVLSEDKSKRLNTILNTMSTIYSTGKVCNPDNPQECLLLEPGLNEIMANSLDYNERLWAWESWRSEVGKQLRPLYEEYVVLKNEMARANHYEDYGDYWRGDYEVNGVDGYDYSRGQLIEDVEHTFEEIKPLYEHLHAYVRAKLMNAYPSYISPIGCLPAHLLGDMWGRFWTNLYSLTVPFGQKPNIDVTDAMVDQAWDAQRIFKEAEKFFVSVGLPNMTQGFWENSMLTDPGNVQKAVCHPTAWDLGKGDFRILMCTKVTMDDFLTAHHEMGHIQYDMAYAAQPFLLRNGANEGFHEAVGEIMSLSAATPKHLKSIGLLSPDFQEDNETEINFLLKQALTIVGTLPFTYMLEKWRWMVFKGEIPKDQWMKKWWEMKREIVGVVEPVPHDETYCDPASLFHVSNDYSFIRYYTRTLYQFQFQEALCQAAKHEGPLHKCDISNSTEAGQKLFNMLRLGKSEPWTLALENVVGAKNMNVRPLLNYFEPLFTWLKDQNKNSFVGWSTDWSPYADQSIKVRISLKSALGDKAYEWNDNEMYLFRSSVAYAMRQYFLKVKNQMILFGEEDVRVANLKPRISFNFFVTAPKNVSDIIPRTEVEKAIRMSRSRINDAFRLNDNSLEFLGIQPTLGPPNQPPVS

B1: SARS-CoV S protein (natural protein)
chain: not shown
[1]
  Kd: 177 nM
[2]
  koff: 0.00294 s⁻¹
